Values quoted from earlier work as cited in paper PMC4134939.

Target: ubiquitin (Homo sapiens) (UniProt P0CG47)

Chain of DNA polymerase iota UBM1 (Q9UNA4 513-557): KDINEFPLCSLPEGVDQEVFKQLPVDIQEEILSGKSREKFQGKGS

Kd: 130 µM
Substance: DNA polymerase iota UBM1 (from UniProt Q9UNA4)
